The target of this assay is HLA-A*02:01 (Homo sapiens, UniProt P04439, D140Y/D185E/D98H/E176V/E277Q/G131W/G231S/I119V/I121R/I166T/I218V/L300P/L318F/N151K/N90K/P208A/P217A/Q86G/Q94H/R138H/R169H/T345S). In words: MHC binding assay: UV-ligand exchange and β2m ELISA (peptide exchange yield, Table 7). As to conditions: binding of HLA-class I restricted peptides to HLA-A*02:01, UV-ligand exchange. The procedure, abridged: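 Peptide-MHC complexes made by UV-mediated exchange of a cleavable ligand for test peptide; exchange yield measured by ELISA detecting β2m of stabilized complexes captured on streptavidin, using refolded HLA-A*02:01/MLA-001 monomer standards (15-500 ng/ml). Samples diluted 100-fold; HRP anti-β2m, TMB, absorbance 450 nm.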
On the technique in general: An ELISA detects its analyte on a solid surface through an enzyme-linked reagent.

This is an account of results in patent publication US9994628B2, “Peptides and combination of peptides for use in immunotherapy against various tumors” (IMMATICS BIOTECHNOLOGIES GMBH, priority 2015, dated 2018).

For the substance “219 (GVVPTIQKV; listed as Homo sapiens) [compound 219]”, the “Peptide exchange (MHC class I binding score, peptide exchange yield)” value (from here on “Peptide exchange”) is recorded as “++ (≥20% = ++)”.

With “117 (TLLEGISRA; listed as Homo sapiens) [compound 117]”, the “Peptide exchange” value was “++ (≥20% = ++)”.

Take “213 (ILAVDGVLSV; listed as Homo sapiens) [compound 213]”: the “Peptide exchange” value is “+++ (≥50% = +++)”.

Take “77 (ALYGNVQQV; listed as Homo sapiens) [compound 77]”: the “Peptide exchange” value is recorded as “+++ (≥50% = +++)”.

Take “259 (GPGIFPPPPPQP; listed as Homo sapiens) [compound 259]”: the “Peptide exchange” value is given as “+ (≥10% = +)”.

Regarding “176 (VQSGLRILL; listed as Homo sapiens) [compound 176]”, the “Peptide exchange” value is on record as “++ (≥20% = ++)”.

For “230 (KLLNMIFSI; listed as Homo sapiens) [compound 230]”, the “Peptide exchange” value is “+++ (≥50% = +++)”.

For “146 (VVAAHLAGA; listed as Homo sapiens) [compound 146]”, the “Peptide exchange” value was “++ (≥20% = ++)”.

In the case of “286 (FLTEMVHFI; listed as Homo sapiens) [compound 286]”, the “Peptide exchange” value was “+++ (≥50% = +++)”.

Regarding “256 (FLNDIFERI; listed as Homo sapiens) [compound 256]”, the “Peptide exchange” value is recorded as “+++ (≥50% = +++)”.

On to “79 (TVLEEIGNRV; listed as Homo sapiens) [compound 79]”, for which the “Peptide exchange” value is listed as “++ (≥20% = ++)”.

Consider “48 (KISDFGLATV; listed as Homo sapiens) [compound 48]”, for which the “Peptide exchange” value was “+++ (≥50% = +++)”.

Turning to “25 (LLWGHPRVALA; listed as Homo sapiens) [compound 25]”, the “Peptide exchange” value was “+++ (≥50% = +++)”.

In the case of “157 (ILQDGQFLV; listed as Homo sapiens) [compound 157]”, the “Peptide exchange” value is on record as “++ (≥20% = ++)”.

With “237 (ALLEQTGDMSL; listed as Homo sapiens) [compound 237]”, the “Peptide exchange” value is recorded as “+++ (≥50% = +++)”.

On to “180 (RLYEEEIRI; listed as Homo sapiens) [compound 180]”, for which the “Peptide exchange” value is listed as “+++ (≥50% = +++)”.

Turning to “129 (KMASKVTQV; listed as Homo sapiens) [compound 129]”, the “Peptide exchange” value is “++ (≥20% = ++)”.

As to “279 (VLMDEGAVLTL; listed as Homo sapiens) [compound 279]”, the “Peptide exchange” value is reported as “++ (≥20% = ++)”.

For the substance “51 (LDSEALLTL; listed as Homo sapiens) [compound 51]”, the “Peptide exchange” value is “++ (≥20% = ++)”.

“100 (ALQSFEFRV; listed as Homo sapiens) [compound 100]”: the “Peptide exchange” value was “+++ (≥50% = +++)”.

On to “269 (GLLDCPIFL; listed as Homo sapiens) [compound 269]”, for which the “Peptide exchange” value is on record as “++++ (≥75% = ++++)”.

On to “151 (DISKRIQSL; listed as Homo sapiens) [compound 151]”, for which the “Peptide exchange” value is reported as “++ (≥20% = ++)”.

In the case of “60 (YLFSQGLQGL; listed as Homo sapiens) [compound 60]”, the “Peptide exchange” value is on record as “+++ (≥50% = +++)”.

For “23 (ALLSPLSLA; listed as Homo sapiens) [compound 23]”, the “Peptide exchange” value is listed as “+++ (≥50% = +++)”.

Take “122 (SIIDTELKV; listed as Homo sapiens) [compound 122]”: the “Peptide exchange” value was “+++ (≥50% = +++)”.

With “263 (SIIEYLPTL; listed as Homo sapiens) [compound 263]”, the “Peptide exchange” value is recorded as “+++ (≥50% = +++)”.

“167 (LVVDEGSLVSV; listed as Homo sapiens) [compound 167]”: the “Peptide exchange” value is given as “+++ (≥50% = +++)”.

In the case of “216 (ALSTVTPRI; listed as Homo sapiens) [compound 216]”, the “Peptide exchange” value is listed as “++ (≥20% = ++)”.

For “75 (ALLDGALQL; listed as Homo sapiens) [compound 75]”, the “Peptide exchange” value was “+++ (≥50% = +++)”.

For “248 (VLMQDSRLYL; listed as Homo sapiens) [compound 248]”, the “Peptide exchange” value is on record as “+++ (≥50% = +++)”.

As for “174 (ALYSGDLHAA; listed as Homo sapiens) [compound 174]”, the “Peptide exchange” value is “++ (≥20% = ++)”.

With “102 (GLYPVTLVGV; listed as Homo sapiens) [compound 102]”, the “Peptide exchange” value was “+++ (≥50% = +++)”.

Turning to “108 (FIANLPPELKA; listed as Homo sapiens) [compound 108]”, the “Peptide exchange” value was “+++ (≥50% = +++)”.

As for “236 (KMSELQTYV; listed as Homo sapiens) [compound 236]”, the “Peptide exchange” value is recorded as “+++ (≥50% = +++)”.

“36 (TVLQELINV; listed as Homo sapiens) [compound 36]”: the “Peptide exchange” value was “+++ (≥50% = +++)”.

Take “166 (LLGDSSFFL; listed as Homo sapiens) [compound 166]”: the “Peptide exchange” value is recorded as “+++ (≥50% = +++)”.

In the case of “271 (VLIEYNFSI; listed as Homo sapiens) [compound 271]”, the “Peptide exchange” value is listed as “+++ (≥50% = +++)”.

Take “254 (ALGDKFLLRV; listed as Homo sapiens) [compound 254]”: the “Peptide exchange” value is listed as “++ (≥20% = ++)”.

As to “121 (ALYVQAPTV; listed as Homo sapiens) [compound 121]”, the “Peptide exchange” value was “++ (≥20% = ++)”.

For the substance “137 (KLIYKDLVSV; listed as Homo sapiens) [compound 137]”, the “Peptide exchange” value was “++ (≥20% = ++)”.

For “181 (LLWAPTAQA; listed as Homo sapiens) [compound 181]”, the “Peptide exchange” value is listed as “+++ (≥50% = +++)”.

As to “103 (YLADTVQKL; listed as Homo sapiens) [compound 103]”, the “Peptide exchange” value is “++ (≥20% = ++)”.

On to “45 (FLPVSVVYV; listed as Homo sapiens) [compound 45]”, for which the “Peptide exchange” value is “+++ (≥50% = +++)”.

Consider “171 (LLLLDVPTA; listed as Homo sapiens) [compound 171]”, for which the “Peptide exchange” value is recorded as “++ (≥20% = ++)”.

For “95 (KLIDEDEPLFL; listed as Homo sapiens) [compound 95]”, the “Peptide exchange” value was “+++ (≥50% = +++)”.

For “40 (KIWEELSVLEV; listed as Homo sapiens) [compound 40]”, the “Peptide exchange” value is reported as “+++ (≥50% = +++)”.

For “87 (KLLSLLEEA; listed as Homo sapiens) [compound 87]”, the “Peptide exchange” value is recorded as “+++ (≥50% = +++)”.

As for “101 (SLLEVNEASSV; listed as Homo sapiens) [compound 101]”, the “Peptide exchange” value was “+++ (≥50% = +++)”.

Regarding “225 (FLPQPVPLSV; listed as Homo sapiens) [compound 225]”, the “Peptide exchange” value is listed as “+++ (≥50% = +++)”.

Consider “183 (ALSYILPYL; listed as Homo sapiens) [compound 183]”, for which the “Peptide exchange” value is given as “+++ (≥50% = +++)”.

Regarding “207 (KLFETVEEL; listed as Homo sapiens) [compound 207]”, the “Peptide exchange” value is “+++ (≥50% = +++)”.

“270 (TLLTFFHEL; listed as Homo sapiens) [compound 270]”: the “Peptide exchange” value was “+++ (≥50% = +++)”.

For “249 (YLYQILQGI; listed as Homo sapiens) [compound 249]”, the “Peptide exchange” value is “+++ (≥50% = +++)”.

Turning to “93 (RLYGYFHDA; listed as Homo sapiens) [compound 93]”, the “Peptide exchange” value is reported as “++ (≥20% = ++)”.

“106 (VLLGSVVIFA; listed as Homo sapiens) [compound 106]”: the “Peptide exchange” value is listed as “++ (≥20% = ++)”.

Take “212 (MTLSEIHAV; listed as Homo sapiens) [compound 212]”: the “Peptide exchange” value was “++ (≥20% = ++)”.

On to “223 (ALHPVQFYL; listed as Homo sapiens) [compound 223]”, for which the “Peptide exchange” value is “+++ (≥50% = +++)”.

Take “280 (HLWGHALFL; listed as Homo sapiens) [compound 280]”: the “Peptide exchange” value is “+++ (≥50% = +++)”.

With “86 (SLFSNIESV; listed as Homo sapiens) [compound 86]”, the “Peptide exchange” value is reported as “+++ (≥50% = +++)”.

Take “115 (ILHGEVNKV; listed as Homo sapiens) [compound 115]”: the “Peptide exchange” value is “++ (≥20% = ++)”.

As for “245 (ALLEEEEGV; listed as Homo sapiens) [compound 245]”, the “Peptide exchange” value was “++ (≥20% = ++)”.

On to “10 (QLIEKNWLL; listed as Homo sapiens) [compound 10]”, for which the “Peptide exchange” value is recorded as “+++ (≥50% = +++)”.
